Reference: patent US20240245811A1, “ALPHA RA[…] ANALOGUE AND USE THEREOF IN METHODS OF TREATING CCKB RECEPTOR POSITIVE DISEASES” (Paul Scherrer Institut, priority 2020, published 2024)
Read-outs that look alike come from different tables or passages of the source.

Experiments:
[1] = tested on: A431/CCKBR tumors; assay: SPECT/CT imaging with 111In-PP-F11N after 225Ac-PP-F11N treatment; type: in vivo, nude mice; settings: 13 MBq i.v., 2 h after injection, tumor-free mice after 45 or 60 kBq 225Ac-PP-F11N
Excerpt: Image reconstruction and processing is accomplished by using VivoQuant 3.0 Patch1 software.

[2] = tested on: A431/CCKBR tumors; assay: Therapy study in A431/CCKBR tumor-bearing nude mice; type: in vivo; settings: 30-120 kBq, all groups
Experimental: For the therapy study, nude mice are subcutaneously injected with 5×10^6 A431/CCKBR cells on the left shoulder. […] The control group is injected with 100 μL PBS. Tumor diameters and mice weight are recorded daily during the working days. Tumor volume is calculated by using the formula formula V=(W^2×L)/2 (Faustino-Rocha et al. Lab Anim. 2013, 42(6), 217-224). Nude mice are sacrificed when the tumor volume exceeded 1.5 cm^3. The data are obtained from two sets of experiments including control, 30, 45, 60 kBq and control, 60, 90, 120 kBq treatment groups.
GraphPad Prism 7.00 for Windows was used for all statistical analysis. […] Log-rank (Mantel-Cox) test and Gehan-Breslow-Wilcoxon test are performed to compare different survival curves of treatment groups with the control group. Endpoints are defined as death in survival curves. Values of P<0.05 are considered statistically significant. The results are reported as mean±standard deviation of at least three independent replicates.

[3] = tested on: A431/CCKBR cells; assay: Cell proliferation assay (CellTiter 96 AQueous); type: cell-based, human; settings: 24 h
Experimental: Human epidermoid carcinoma A431 stable cell line that overexpress CCKBR, generated as previously described (Aloj et al., J Nucl Med 2004, 45(3), 485-94) can be cultured in DMEM, supplemented with 10% FBS (Bio Concept, Switzerland), 2 mM glutamine and antibiotics (0.1 mg/mL streptomycin, 100 IU penicillin) at 37° C. in a humidified incubator containing 5% CO2.
For the cell proliferation assay, 4×10^3 cells per well are seeded on the 96-well plates.
Cell proliferation can be analyzed using CellTiter 96 AQueous Non-Radioactive Cell Proliferation Kit (Promega AG, Switzerland) according to the manufacturer's instruction. Absorbance of formazan product is measured at 570 nm with a reference of 650 nm using a MicroPlate Reader (PerkinElmer, Switzerland). The absorbance of the control (untreated) cells is set as 100% cell viability. […] The assay is performed in triplicate.

[4] = Histological (HE) analysis of kidney and stomach after treatment; type: in vivo, nude mice; settings: 60 and 120 kBq groups, organs dissected between day 34 and 49
[5] = tested on: A431/CCKBR tumors; assay: Biodistribution study in A431/CCKBR xenografted nude mice; type: in vivo
Experimental: (§1) 1, 4, 24, 48 h and 7 days after administration of radiolabeled peptides, mice are sacrificed and the post mortem dissected tumors and organs are weighted and their activity is measured on a gamma counter (Packard Cobra II Auto Gamma, PerkinElmer, Switzerland).

[6] = as above; type: in vivo; settings: female, CD-1 nude, mouse, iv, total radioactivity; for tissue uptake at 4 h: 4 h post injection; for tissue uptake at 24 h: 24 h post injection; for tissue uptake at 48 h: 48 h post injection; for tissue uptake at 168 h: 7 days post injection
Experimental: as §1

[7] = target: T1, CCKBR (Homo sapiens, UniProt P32239); settings: cited from earlier work
T1 sequence (P32239 1-447): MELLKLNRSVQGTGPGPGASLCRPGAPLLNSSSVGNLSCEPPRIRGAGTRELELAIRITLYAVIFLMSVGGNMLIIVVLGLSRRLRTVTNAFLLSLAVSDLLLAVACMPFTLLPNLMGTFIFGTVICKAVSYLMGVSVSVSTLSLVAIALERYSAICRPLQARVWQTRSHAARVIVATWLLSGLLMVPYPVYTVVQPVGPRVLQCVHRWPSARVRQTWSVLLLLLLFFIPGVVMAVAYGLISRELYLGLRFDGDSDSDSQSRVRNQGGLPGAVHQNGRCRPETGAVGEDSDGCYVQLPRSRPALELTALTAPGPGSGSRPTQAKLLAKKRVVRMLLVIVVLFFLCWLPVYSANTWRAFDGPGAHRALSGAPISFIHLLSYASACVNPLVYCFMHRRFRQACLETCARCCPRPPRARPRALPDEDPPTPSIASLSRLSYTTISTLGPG

[8] = 38 kBq, stomach, read-out: activity in stomach
[9] = tumor (A431/CCKBR xenograft), 38 kBq, tumor, read-out: tumor uptake

## CCCC[C@H](NC(=O)[C@H](Cc1c[nH]c2ccccc12)NC(=O)CNC(=O)[C@H](Cc1ccc(O)cc1)NC(=O)[C@H](C)NC(=O)[C@@H](CCC(=O)O)NC(=O)[C@@H](CCC(=O)O)NC(=O)[C@@H](CCC(=O)O)NC(=O)[C@@H](CCC(=O)O)NC(=O)[C@@H](CCC(=O)O)NC(=O)[C@@H](CCC(=O)O)NC(=O)CN1CCN(CC(=O)O)CCN(CC(=O)O)CCN(CC(=O)O)CC1)C(=O)N[C@@H](CC(=O)O)C(=O)N[C@@H](Cc1ccccc1)C(N)=O [^111In-PP-F11N, metal not drawn]
[1]
  location of radioactive signals on SPECT/CT: only detected in the excretion organs including kidneys and bladder

## CCCC[C@H](NC(=O)[C@H](Cc1c[nH]c2ccccc12)NC(=O)CNC(=O)[C@H](Cc1ccc(O)cc1)NC(=O)[C@H](C)NC(=O)[C@@H](CCC(=O)O)NC(=O)[C@@H](CCC(=O)O)NC(=O)[C@@H](CCC(=O)O)NC(=O)[C@@H](CCC(=O)O)NC(=O)[C@@H](CCC(=O)O)NC(=O)[C@@H](CCC(=O)O)NC(=O)CN1CCN(CC(=O)O)CCN(CC(=O)O)CCN(CC(=O)O)CC1)C(=O)N[C@@H](CC(=O)O)C(=O)N[C@@H](Cc1ccccc1)C(N)=O [^225Ac-PP-F11N, metal not drawn]
[2]
  body weight and cytotoxicity symptoms during the treatment: no body weight losses or other cytotoxicity symptoms
[3]
  activity level at maximum cytotoxic effect (0% of cell viability): 100 kBq/mL
[4]
  HE stains of kidney and stomach versus control: no signs of acute radiation toxicity
[5]; at analyzed time points
  tumor-to-kidney and tumor-to-stomach ratios: excellent
[5]; biodistribution study, 38 kBq
  body or organ weights, general health or anatomy: no significant differences in body or organ weights, general health or anatomy
[5]; kidney, 1 week post injection
  activity level in the kidney: 1.2%
[5]; kidney, 48 h post injection
  activity level in the kidney: 3.8%
[5]; kidney, within the first four hours
  decrease in accumulation in the kidney: 50%
[6]; 38 kBq, kidney, read-out: accumulation in the kidney
  tissue uptake at 4 h: 4.2 %ID/g
[6]; 38 kBq, kidney, start of the first four hours (1 h post injection), read-out: accumulation in the kidney
  tissue uptake at 1 h: 8.1 %ID/g
[6]; 38 kBq, liver and bone, all analyzed time points, read-out: non-specific uptake in the liver and bone
  tissue uptake: < 2 %ID/g
[6]; 38 kBq, stomach, 1 h post injection, read-out: activity in stomach
  tissue uptake at 1 h: 1.5 %ID/g
[6]; [8]
  tissue uptake at 4 h: 1.3 %ID/g
  tissue uptake at 24 h: 1.2 %ID/g
  tissue uptake at 48 h: 0.8 %ID/g
  tissue uptake at 168 h: 0.3 %ID/g
[6]; [9]
  tissue uptake at 4 h: 11.2 %ID/g
  tissue uptake at 24 h: 7.2 %ID/g
  tissue uptake at 48 h: 5.7 %ID/g
  tissue uptake at 168 h: 4.5 %ID/g
[6]; tumor (A431/CCKBR xenograft), tumor, 1 h post injection, 38 kBq i.v., read-out: tumor uptake
  tissue uptake at 1 h: 13 %ID/g

## CCCC[C@H](NC(=O)[C@H](Cc1c[nH]c2ccccc12)NC(=O)CNC(=O)[C@H](Cc1ccc(O)cc1)NC(=O)[C@H](C)NC(=O)[C@@H](CCC(=O)O)NC(=O)[C@@H](CCC(=O)O)NC(=O)[C@@H](CCC(=O)O)NC(=O)[C@@H](CCC(=O)O)NC(=O)[C@@H](CCC(=O)O)NC(=O)[C@@H](CCC(=O)O)NC(=O)CN1CCN(CC(=O)O)CCN(CC(=O)O)CCN(CC(=O)O)CC1)C(=O)N[C@@H](CC(=O)O)C(=O)N[C@@H](Cc1ccccc1)C(N)=O [metal not drawn]
[7]; WO 2015/067473 A1
  tumor uptake and kidney accumulation: good tumor uptake as well as low accumulation in the kidneys
[7]; recent studies (Sauter 2019, Rottenburger 2020)
  accumulation in healthy tissues: can accumulate in healthy tissues (i.e. in the stomach)
